Data reported in paper PMC2864300, “Regulation of NOXO1 Activity through Reversible Interactions with p22^phox and NOXA1” (PLoS ONE, 2010).

T1: mouse NOXO1 SH3AB–E (tandem SH3 domains plus the C-terminal portion of NOXO1) (mouse, UniProt Q8VCM2 160-349)
T1 construct: mouse NOXO1, tandem SH3 domains plus the C-terminal portion; source: E. coli BL21 STAR, purified (glutathione Sepharose, PreScission cleavage, Superdex 75)
T1 sequence (looked up): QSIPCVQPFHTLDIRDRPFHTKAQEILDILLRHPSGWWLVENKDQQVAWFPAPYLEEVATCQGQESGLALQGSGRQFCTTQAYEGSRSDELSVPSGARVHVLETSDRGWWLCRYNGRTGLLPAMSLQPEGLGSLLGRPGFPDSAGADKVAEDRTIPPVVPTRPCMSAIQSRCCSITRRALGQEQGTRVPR

T2: human p22^phox cytoplasmic domain (p22^phoxC) (human)
T2 construct: human p22phox, cytoplasmic domain; source: E. coli BL21 STAR, purified (glutathione Sepharose, PreScission cleavage, Superdex 75)
T2 sequence (P13498 whole entry, looked up): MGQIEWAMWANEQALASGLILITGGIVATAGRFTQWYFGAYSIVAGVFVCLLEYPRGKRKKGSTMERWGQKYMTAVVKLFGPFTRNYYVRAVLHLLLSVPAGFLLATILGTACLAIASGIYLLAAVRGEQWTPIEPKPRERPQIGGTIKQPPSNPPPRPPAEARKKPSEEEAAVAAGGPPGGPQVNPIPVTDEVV

B1: mouse NOXA1 SH3 domain (domain or fragment, UniProt Q8CJ00 369-428, looked up)
chain: PVLYQVVAQYNYRAQRPEDLDFHQGDTVDVLCEVDEAWLEGHRDGCVGIFPKCFVVPAGA
notes: mouse NOXA1, carboxy-terminal SH3 domain; source: E. coli BL21 STAR, purified (glutathione Sepharose, PreScission cleavage, Superdex 75)
B2: human NOXO1 SH3AB–E (tandem SH3 domains plus the C-terminal portion of NOXO1) (domain or fragment)
chain: LEAQSLRCLQPFCTQDTRDRPFQAQAQESLDVLLRHPSGWWLVENEDRQTAWFPAPYLEEAAPGQGREGGPSLGSSGPQFCASRAYESSRADELSVPAGARVRVLETSDRGWWLCRYGDRAGLLPAVLLRPEGLGALLSGTGFRGGDDPAGEARGFPEPSQATAPPPTVPTRPSPGAIQSRCCTVTRRALERRPRRQGRPRGCVDSVPHPTTEQ
B3: human NOXA1 SH3 domain (domain or fragment, UniProt Q86UR1 399-458, looked up)
chain: PVLYQVVAQHSYSAQGPEDLGFRQGDTVDVLCEVDQAWLEGHCDGRIGIFPKCFVVPAGP
notes: human NOXA1, carboxy-terminal SH3 domain; source: E. coli BL21 STAR, purified (glutathione Sepharose, PreScission cleavage, Superdex 75)
B4: shorter version of peptideA, which only contains the proline rich region (peptide)
peptide: TAPPPTVPTRPS
notes: also called PeptideA-short; short proline-rich motif-containing version of peptideA; source: synthetic peptide
B5: mouse p22^phox cytoplasmic domain (p22^phoxC) (domain or fragment, UniProt Q61462 127-192, looked up)
chain: RGEQWTPIEPKPKERPQVGGTIKQPPTNPPPRPPAEVRKKPSEGEEEAASAGGPQVNPMPVTDEVV
notes: mouse p22phox, cytoplasmic domain; also called murine p22^phox; source: E. coli BL21 STAR, purified (glutathione Sepharose, PreScission cleavage, Superdex 75)
B6: peptideA (amino acids 319–347 of human NOXO1) (peptide)
peptide: TAPPPTVPTRPSPGAIQSRCCTVTRRALE
notes: also called long version of peptideA; source: synthetic peptide

How the values were obtained:
Assay in all cases: ITC; MicroCal VP-ITC, 18°C; 150 mM NaCl, 1 mM DTT, 50 mM HEPES pH 7.4; typically 20–40 µM protein in the cell, 200–300 µM ligand injected; single-site binding model; averaged over three to five experiments
Details in all cases: both partners purified
[1] = target: T1, mouse NOXO1 SH3AB–E (tandem SH3 domains …)
[2] = target: T2, human p22^phox cytoplasmic domain …
[3] = target: B3
[4] = target: B2
[5] = target: T1, mouse NOXO1 SH3AB–E (tandem SH3 domains …); remark: listed apart in the source
[6] = target: B1

Binder: B1
- Kd [1]: 2200 nM
- dH [1]: -10.1 ± 0.8 kcal/mol

Binder: B2
- Kd [2]: 17.5 µM
- Kd [3]: 7.2 µM

Binder: B3
- dH [4]: -8.6 ± 0.7 kcal/mol

Binder: B4
- Kd [3]: > 70 µM

Binder: B5
- Kd [5]: 780 nM
- dH [5]: -7.1 ± 0.05 kcal/mol

Binder: B6
- Kd [6]: 5.9 µM
- dH [6]: -7.6 ± 0.3 kcal/mol
- Kd [3]: 5.8 µM
- dH [3]: -12.6 ± 0.6 kcal/mol
